± gives the uncertainty stated by the source.
B1: POU domain, class 3, transcription factor 3, residues 408 to 463; numbered along this chain, P20264 (parent)
chain: KKRTSIEVSVKGALESHFLKCPKPSAQEITNLADSLQLEKEVVRVWFCNRRQKEKR

Variants of: B1
Assay: abundance fitness (aPCA) (normalised: wild type 0, dead -1); higher = more abundant; growth selection in yeast, the domain comes from the species named
Details: Homo sapiens

Abundance fitness, by site and new letter:
F47: M -0.144 ± 0.34 | D -0.295 ± 0.4 | L -0.461 ± 0.28 | R -1.07 ± 0.29 | S -0.442 ± 0.34
N49: G -0.279 ± 0.07 | D -0.177 ± 0.28 | Y -0.381 ± 0.2 | V -0.152 ± 0.1 | A -0.142 ± 0.094 | P -0.881 ± 0.2 | W -0.295 ± 0.088 | E 0.041 ± 0.13 | R -0.278 ± 0.07 | S -0.098 ± 0.079 | Q 0.028 ± 0.13 | K -0.276 ± 0.15 | L -0.357 ± 0.083 | H -0.034 ± 0.15 | T -0.097 ± 0.12 | C -0.202 ± 0.11 | I -0.151 ± 0.14 | M -0.274 ± 0.11
R50: I -0.809 ± 0.22 | M -0.497 ± 0.11 | W -0.883 ± 0.15 | A -0.416 ± 0.073 | K -0.364 ± 0.14 | F -0.875 ± 0.18 | L -0.739 ± 0.09 | N -0.919 ± 0.22 | Q -0.275 ± 0.11 | C -0.75 ± 0.12 | T -0.883 ± 0.17 | H -0.668 ± 0.15 | P -0.853 ± 0.12 | Y -0.889 ± 0.18 | E -0.538 ± 0.1 | V -0.914 ± 0.089
K53: A 0.076 ± 0.1 | P -0.6 ± 0.13 | I -0.121 ± 0.13 | D 0.196 ± 0.22 | G -0.212 ± 0.072 | F -0.156 ± 0.15 | H -0.194 ± 0.14 | R -0.044 ± 0.064 | N -0.248 ± 0.24 | Q -0.041 ± 0.1 | T -0.067 ± 0.12 | Y -0.288 ± 0.18 | M -0.167 ± 0.11 | L 0.032 ± 0.08 | E -0.013 ± 0.12 | S 0.068 ± 0.082 | V -0.03 ± 0.087 | C -0.152 ± 0.11
K55: N 0.021 ± 0.14 | L -0.006 ± 0.087 | M -0.096 ± 0.1 | C -0.14 ± 0.13 | D -0.079 ± 0.12 | R -0.089 ± 0.075 | T -0.095 ± 0.099 | E 0.024 ± 0.11 | Q -0.132 ± 0.16 | V -0.031 ± 0.081 | H -0.122 ± 0.19 | I -0.234 ± 0.15 | F -0.312 ± 0.17 | G 0.053 ± 0.074 | W -0.129 ± 0.12 | A -0.038 ± 0.098 | S -0.011 ± 0.098 | P -0.265 ± 0.16
V45: F -0.211 ± 0.11 | M -0.06 ± 0.13 | N -0.206 ± 0.14 | L -0.042 ± 0.074 | R -0.109 ± 0.057 | T -0.028 ± 0.097 | G -0.058 ± 0.063 | Q 0.052 ± 0.097 | S 0.032 ± 0.064 | K -0.024 ± 0.096 | Y -0.28 ± 0.14 | W -0.162 ± 0.087 | H 0.103 ± 0.11
R51: A -0.105 ± 0.088 | W 0.018 ± 0.081 | M 0.031 ± 0.12 | V -0.222 ± 0.09 | P -0.608 ± 0.16 | C -0.345 ± 0.12 | K -0.534 ± 0.18 | E -0.126 ± 0.092 | H -0.361 ± 0.24 | L -0.005 ± 0.079 | Y 0.243 ± 0.48 | F -0.385 ± 0.23 | I -0.207 ± 0.27 | N -0.175 ± 0.28 | G -0.156 ± 0.062 | Q -0.164 ± 0.12
E54: A -0.185 ± 0.074 | T -0.281 ± 0.11 | L -0.365 ± 0.08 | C -0.366 ± 0.14 | M -0.148 ± 0.15 | N -0.474 ± 0.2 | R -0.485 ± 0.078 | G -0.234 ± 0.079 | K -0.658 ± 0.15 | H -0.432 ± 0.18 | P -0.543 ± 0.15 | D 0.058 ± 0.11 | Q -0.241 ± 0.12 | S -0.365 ± 0.081 | V -0.252 ± 0.075 | F -0.598 ± 0.14 | I -0.748 ± 0.18
Q52: L -0.131 ± 0.078 | H -0.113 ± 0.15 | V -0.112 ± 0.083 | T -0.227 ± 0.13 | I -0.186 ± 0.16 | K -0.112 ± 0.14 | G -0.146 ± 0.074 | W -0.185 ± 0.1 | M -0.194 ± 0.15 | D 0.034 ± 0.12 | S 0.014 ± 0.09 | F -0.205 ± 0.14 | Y -0.257 ± 0.14 | E 0.057 ± 0.14 | P -0.705 ± 0.14 | C -0.126 ± 0.11 | N -0.17 ± 0.14 | A 0.041 ± 0.081 | R -0.138 ± 0.069
C48: M 0.026 ± 0.11 | A -0.12 ± 0.12 | Y 0.068 ± 0.1 | K -0.074 ± 0.11 | R 0.035 ± 0.062 | I 0.045 ± 0.14 | N 0.211 ± 0.2 | T 0.032 ± 0.1 | P -0.657 ± 0.13 | S 0.045 ± 0.07 | V 0.068 ± 0.099 | W -0.113 ± 0.083 | Q 0.131 ± 0.088 | E 0.069 ± 0.13 | G -0.109 ± 0.073 | L -0.047 ± 0.079 | D -0.029 ± 0.2
W46: R -0.248 ± 0.22 | S -0.422 ± 0.45
R56: E 0.093 ± 0.17 | S -0.151 ± 0.27 | W -0.272 ± 0.13 | A -0.046 ± 0.12 | D -0.247 ± 0.26 | M 0.002 ± 0.31 | P -0.226 ± 0.29 | T -0.05 ± 0.2 | N -0.143 ± 0.45 | G -0.068 ± 0.086 | H -0.277 ± 0.41 | V -0.039 ± 0.081 | C -0.435 ± 0.25

From the Human Domainome abundance scans (Beltran et al. 2025)
